In IntAct's records for PubMed 19817875:

B1: Actin nucleation-promoting factor WAS (Homo sapiens), P42768 (parent)
chain: MSGGPMGGRPGGRGAPAVQQNIPSTLLQDHENQRLFEMLGRKCLTLATAVVQLYLALPPGAEHWTKEHCGAVCFVKDNPQKSYFIRLYGLQAGRLLWEQELYSQLVYSTPTPFFHTFAGDDCQAGLNFADEDEAQAFRALVQEKIQKRNQRQSGDRRQLPPPPTPANEERRGGLPPLPLHPGGDQGGPPVGPLSLGLATVDIQNPDITSSRYRGLPAPGPSPADKKRSGKKKISKADIGAPSGFKHVSHVGWDPQNGFDVNNLDPDLRSLFSRAGISEAQLTDAETSKLIYDFIEDQGGLEAVRQEMRRQEPLPPPPPPSRGGNQLPRPPIVGGNKGRSGPLPPVPLGIAPPPPTPRGPPPPGRGGPPPPPPPATGRSGPLPPPPPGAGGPPMPPPPPPPPPPPSSGNGPAPPPLPPALVPAGGLAPGGGRGALLDQIRQGIQLNKTPGAPESSALQPPPQSSEGLVGALMHVMQKRSRAIHSSDEGEDQAGDEDEDDEWDD

Assays:
Conditions in all cases: with wipf1_human WIPF1, O43516
Chain of wipf1_human WIPF1, O43516 (O43516 whole entry): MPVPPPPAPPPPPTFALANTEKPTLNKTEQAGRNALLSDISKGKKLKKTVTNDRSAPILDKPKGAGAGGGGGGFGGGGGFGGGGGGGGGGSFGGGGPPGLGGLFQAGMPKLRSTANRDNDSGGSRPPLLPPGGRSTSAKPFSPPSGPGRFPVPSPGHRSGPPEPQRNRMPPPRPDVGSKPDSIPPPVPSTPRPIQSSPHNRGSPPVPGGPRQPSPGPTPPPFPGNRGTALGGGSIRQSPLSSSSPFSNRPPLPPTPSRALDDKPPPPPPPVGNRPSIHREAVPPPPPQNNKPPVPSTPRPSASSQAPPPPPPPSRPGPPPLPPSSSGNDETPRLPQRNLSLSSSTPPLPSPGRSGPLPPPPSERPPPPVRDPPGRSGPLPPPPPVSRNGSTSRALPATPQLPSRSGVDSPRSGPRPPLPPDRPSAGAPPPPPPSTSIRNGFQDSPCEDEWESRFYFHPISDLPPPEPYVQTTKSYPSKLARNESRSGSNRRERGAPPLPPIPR

[1] = variants of: B1
[2] = variants of: B1; remark: listed apart in the source
[3] = variants of: B1; remark: listed apart in the source

Variant	effect of a mutation on the interaction [1]	effect of a mutation on the interaction [2]	effect of a mutation on the interaction [3]
C73Y	disrupting interaction strength	decreasing interaction strength	
L35H	with no effect	decreasing interaction strength	disrupting interaction strength
I85T	with no effect	decreasing interaction strength	disrupting interaction strength
L46P	disrupting interaction strength	decreasing interaction strength	
A134T	disrupting interaction strength	decreasing interaction strength	
E31K	with no effect		disrupting interaction strength
